Data taken from paper doi:10.1101/2022.05.13.491800 (bioRxiv, 2022).

B1: Smc6 (natural protein, S. cerevisiae, UniProt Q12749 1-1114, looked up)
chain: MISTTISGKRPIEQVDDELLSLTAQQENEEQQQQRKRRRHQFAPMTQFNSNTLDEDSGFRSSSDVATADQDNFLEESPSGYIKKVILRNFMCHEHFELELGSRLNFIVGNNGSGKSAILTAITIGLGAKASETNRGSSLKDLIREGCYSAKIILHLDNSKYGAYQQGIFGNEIIVERIIKRDGPASFSLRSENGKEISNKKKDIQTVVDYFSVPVSNPMCFLSQDAARSFLTASTSQDKYSHFMKGTLLQEITENLLYASAIHDSAQENMALHLENLKSLKAEYEDAKKLLRELNQTSDLNERKMLLQAKSLWIDVAHNTDACKNLENEISGIQQKVDEVTEKIRNRQEKIERYTSDGTTIEAQIDAKVIYVNEKDSEHQNARELLRDVKSRFEKEKSNQAEAQSNIDQGRKKVDALNKTIAHLEEELTKEMGGDKDQMRQELEQLEKANEKLREVNNSLVVSLQDVKNEERDIQHERESELRTISRSIQNKKVELQNIAKGNDTFLMNFDRNMDRLLRTIEQRKNEFETPAIGPLGSLVTIRKGFEKWTRSIQRAISSSLNAFVVSNPKDNRLFRDIMRSCGIRSNIPIVTYCLSQFDYSKGRAHGNYPTIVDALEFSKPEIECLFVDLSRIERIVLIEDKNEARNFLQRNPVNVNMALSLRDRRSGFQLSGGYRLDTVTYQDKIRLKVNSSSDNGTQYLKDLIEQETKELQNIRDRYEEKLSEVRSRLKEIDGRLKSTKNEMRKTNFRMTELKMNVGKVVDTGILNSKINERKNQEQAIASYEAAKEELGLKIEQIAQEAQPIKEQYDSTKLALVEAQDELQQLKEDINSRQSKIQKYKDDTIYYEDKKKVYLENIKKIEVNVAALKEGIQRQIQNACAFCSKERIENVDLPDTQEEIKRELDKVSRMIQKAEKSLGLSQEEVIALFEKCRNKYKEGQKKYMEIDEALNRLHNSLKARDQNYKNAEKGTCFDADMDFRASLKVRKFSGNLSFIKDTKSLEIYILTTNDEKARNVDTLSGGEKSFSQMALLLATWKPMRSRIIALDEFDVFMDQVNRKIGTTLIVKKLKDIARTQTIIITPQDIGKIADIDSSGVSIHRMRDPERQNNSNFYN
B2: Smc5 (natural protein, S. cerevisiae, UniProt Q08204 1-1093, looked up)
chain: MTSLIDLGRYVERTHHGEDTEPRSKRVKIAKPDLSSFQPGSIIKIRLQDFVTYTLTEFNLSPSLNMIIGPNGSGKSTFVCAVCLGLAGKPEYIGRSKKVEDFIKNGQDVSKIEITLKNSPNVTDIEYIDARDETIKITRIITRSKRRSDYLINDYQVSESVVKTLVAQLNIQLDNLCQFLSQERVEEFARLKSVKLLVETIRSIDASLLDVLDELRELQGNEQSLQKDLDFKKAKIVHLRQESDKLRKSVESLRDFQNKKGEIELHSQLLPYVKVKDHKEKLNIYKEEYERAKANLRAILKDKKPFANTKKTLENQVEELTEKCSLKTDEFLKAKEKINEIFEKLNTIRDEVIKKKNQNEYYRGRTKKLQATIISTKEDFLRSQEILAQTHLPEKSVFEDIDIKRKEIINKEGEIRDLISEIDAKANAINHEMRSIQRQAESKTKSLTTTDKIGILNQDQDLKEVRDAVLMVREHPEMKDKILEPPIMTVSAINAQFAAYLAQCVDYNTSKALTVVDSDSYKLFANPILDKFKVNLRELSSADTTPPVPAETVRDLGFEGYLSDFITGDKRVMKMLCQTSKIHTIPVSRRELTPAQIKKLITPRPNGKILFKRIIHGNRLVDIKQSAYGSKQVFPTDVSIKQTNFYQGSIMSNEQKIRIENEIINLKNEYNDRKSTLDALSNQKSGYRHELSELASKNDDINREAHQLNEIRKKYTMRKSTIETLREKLDQLKREARKDVSQKIKDIDDQIQQLLLKQRHLLSKMASSMKSLKNCQKELISTQILQFEAQNMDVSMNDVIGFFNEREADLKSQYEDKKKFVKEMRDTPEFQSWMREIRSYDQDTKEKLNKVAEKYEEEGNFNLSFVQDVLDKLESEIAMVNHDESAVTILDQVTAELRELEHTVPQQSKDLETIKAKLKEDHAVLEPKLDDIVSKISARFARLFNNVGSAGAVRLEKPKDYAEWKIEIMVKFRDNAPLKKLDSHTQSGGERAVSTVLYMIALQEFTSAPFRVVDEINQGMDSRNERIVHKAMVENACAENTSQYFLITPKLLTGLHYHEKMRIHCVMAGSWIPNPSEDPKMIHFGETSNYSFD

Experiments:
[1] = target: B2; assay: SEC
[2] = target: B1; assay: co-purification

Binder	stoichiometry N [1]	binding result [2]
Nse6 (natural protein, S. cerevisiae, UniProt P40026 1-464, looked up) MGSVNSSPNEEFETVPDSQISGFDSPLIPTSVGSYFRDDDDDEKVHPNFISDPENDSLNSDEEFSSLENSDLNLSGAKAESGDDFDPILKRTIISKRKAPSNNEDEEIVKTPRKLVNYVPLKIFNLGDSFDDTITTTVAKLQDLKKEILDSPRSNKSIVITSNTVAKSELQKSIKFSGSIPEIYLDVVTKETISDKYKDWHFISKNCHYEQLMDLEMKDTAYSFLFGSSRSQGKVPEFVHLKCPSITNLLVLFGVNQEKCNSLKINYEKKENSRYDNLCTIFPVNKMLKFLMYFYSDDDNDDVREFFLKAFICLILDRKVFNAMESDHRLCFKVLELFNEAHFINSYFEIVDKNDFFLHYRLLQIFPHLQSALLRRRFSEKQGRTETIQQNIIKEFNEFFDCKNYKNLLYFILTMYGSKFIPFGPKCQVTEYFKDCILDISNETTNDVEISILKGILNLFSKIR	~1	–
B1	~1	–
Nse5 (natural protein, S. cerevisiae, UniProt Q03718 1-556, looked up) MDGALINSVLYVSPRNGAHYFVELTEKHLLAFEMLNSMCLLENYDHVLLFLECQFGKSHNLAVIPFDIILVLFTLSTLSEYYKEPILRANDPYNTSRETLSRRALKLLQKYLAILKEFDSEQYNLYDLELLRCQFFLAIDTLTPKKQKWGFDRFRRTKSESGVTYRQNASVDPELDQAKTFKNPYRSYISCLEQRNTILGNRLLNLKLNEPGEFINMILWTLSNSLQESTPLFLSSHEIWMPLLEILIDLFSCRQDYFIQHEVAQNVSKSLFVQRLSESPLAVFFESLNTRNFANRFSEYVFLNCDYKLPSDNYATPVHPVYNGENTIVDTYIPTIKCSPLYKSQKSLALRRKLIGSCFKLLLRVPDGHRLITPRIVADDVIQGISRTLASFNDILQFKKFFMTENLSQESYFIPLLAEGTLSEILKDTQECVVILTLVENLSDGVSFCNEVIGLVKSKCFAFTEQCSQASYEEAVLNIEKCDVCLLVLLRYLLHLIGTEAILDAKEQLEMLHAIEKNDSGRRQWAKALNLGNDPPLLYPIVSQMFGVHDKSVIIE	~1	–
B2	–	binds
